Columns and labels:
RRGWHFYD = molecular target: T1, RRGWHFYD; assay: peptide microarray, 8mer on the chip, 1 µg/mL LY75_A1, anti-human IgG Alexa 647
T1 construct: LY75 8mer on the microarray; aa 763-770 counted from Region 3 (aa761-780)
T1 peptide: RRGWHFYD
Experimental: (§1) The peptide microarray analysis was performed by LC Sciences, Houston Tex., in brief the method comprised the following steps: —Contiguous 8mer peptides of LY75 protein having […] spanning residues 216 to 1666 of the full length LY75 protein were synthesized and immobilized on a microarray chip. The chip comprised three panels such that the experiment was performed in triplicate. […] The binding assay was performed under the following conditions:—
(§2) The microarray comprising the contiguous peptides in triplicate was washed with 1 mL of binding buffer at 4° C. for 20 min. […] The array was again washed with 0.5 mL of washing buffer at 4° C. for 30 min then incubated with 25 ng/mL anti-human IgG Alexa 647 conjugate in binding buffer (pH 7.0) at 4° C. for 1 hr. The array was again washed with 0.5 mL of washing buffer at 4° C. for 30 min.

WHRFPVTF = molecular target: T2, WHRFPVTF; assay: as above
T2 construct: LY75 8mer on the microarray
T2 peptide: WHRFPVTF
Experimental: as §1, §2

SRWIQYKG = molecular target: T3, SRWIQYKG; assay: as above
T3 construct: LY75 8mer on the microarray
T3 peptide: SRWIQYKG
Experimental: as §1, §2

HRFPVTFG = molecular target: T4, HRFPVTFG; assay: as above
T4 construct: LY75 8mer on the microarray
T4 peptide: HRFPVTFG
Experimental: as §1, §2

SRYPWHRF = molecular target: T5, SRYPWHRF; assay: as above
T5 construct: LY75 8mer on the microarray
T5 peptide: SRYPWHRF
Experimental: as §1, §2

RYPWHRFP = molecular target: T6, RYPWHRFP; assay: as above
T6 construct: LY75 8mer on the microarray
T6 peptide: RYPWHRFP
Experimental: as §1, §2

HFTYSRYP = molecular target: T7, HFTYSRYP; assay: as above
T7 construct: LY75 8mer on the microarray
T7 peptide: HFTYSRYP
Experimental: as §1, §2

DDHFTYSR = molecular target: T8, DDHFTYSR; assay: as above
T8 construct: LY75 8mer on the microarray
T8 peptide: DDHFTYSR
Experimental: as §1, §2

YKSDQALH = molecular target: T9, YKSDQALH; assay: as above
T9 construct: LY75 8mer on the microarray
T9 peptide: YKSDQALH
Experimental: as §1, §2

VKYLNNLY = molecular target: T10, VKYLNNLY; assay: as above
T10 construct: LY75 8mer on the microarray
T10 peptide: VKYLNNLY
Experimental: as §1, §2

EAVYFHQH = molecular target: T11, EAVYFHQH; assay: as above
T11 construct: LY75 8mer on the microarray
T11 peptide: EAVYFHQH
Experimental: as §1, §2

YFHQHSIL = molecular target: T12, YFHQHSIL; assay: as above
T12 construct: LY75 8mer on the microarray
T12 peptide: YFHQHSIL
Experimental: as §1, §2

AVYFHQHS = molecular target: T13, AVYFHQHS; assay: as above
T13 construct: LY75 8mer on the microarray
T13 peptide: AVYFHQHS
Experimental: as §1, §2

YDDREFIY = molecular target: T14, YDDREFIY; assay: as above
T14 construct: LY75 8mer on the microarray; aa 769-776 counted from Region 3 (aa761-780)
T14 peptide: YDDREFIY
Experimental: as §1, §2

ELTYSNFH = molecular target: T15, ELTYSNFH; assay: as above
T15 construct: LY75 8mer on the microarray
T15 peptide: ELTYSNFH
Experimental: as §1, §2

YKGHCYKS = molecular target: T16, YKGHCYKS; assay: as above
T16 construct: LY75 8mer on the microarray
T16 peptide: YKGHCYKS
Experimental: as §1, §2

TYSNFHPL = molecular target: T17, TYSNFHPL; assay: as above
T17 construct: LY75 8mer on the microarray
T17 peptide: TYSNFHPL
Experimental: as §1, §2

YSNFHPLL = molecular target: T18, YSNFHPLL; assay: as above
T18 construct: LY75 8mer on the microarray
T18 peptide: YSNFHPLL
Experimental: as §1, §2

VSLCQKYS = molecular target: T19, VSLCQKYS; assay: as above
T19 construct: LY75 8mer on the microarray
T19 peptide: VSLCQKYS
Experimental: as §1, §2

QYKGHCYK = molecular target: T20, QYKGHCYK; assay: as above
T20 construct: LY75 8mer on the microarray
T20 peptide: QYKGHCYK
Experimental: as §1, §2

LSRLTYSS = molecular target: T21, LSRLTYSS; assay: as above
T21 construct: LY75 8mer on the microarray
T21 peptide: LSRLTYSS
Experimental: as §1, §2

GWHFYDDR (765-772) = molecular target: T22, GWHFYDDR (765-772) (human); assay: as above
T22 construct: Tryptic peptide of recombinant LY75, found by LC-MS/MS after pull down
T22 peptide: GWHFYDDR
Experimental: as §1, §2

KKLSRLTY = molecular target: T23, KKLSRLTY; assay: as above
T23 construct: LY75 8mer on the microarray
T23 peptide: KKLSRLTY
Experimental: as §1, §2

SCYKVFHA = molecular target: T24, SCYKVFHA; assay: as above
T24 construct: LY75 8mer on the microarray
T24 peptide: SCYKVFHA
Experimental: as §1, §2

LNNLYKII = molecular target: T25, LNNLYKII; assay: as above
T25 construct: LY75 8mer on the microarray
T25 peptide: LNNLYKII
Experimental: as §1, §2

[1] = molecular target: T26, LY75 (DEC-205) on COLO205 cells (human, UniProt O60449 28-1722); assay: competitive FACS on COLO205 cells; competitor anti-LY75-mAb-MCC-DM1
T26 construct: also called Lymphocyte antigen 75
Experimental: Cells were washed and resuspended in FACS buffer (PBS+2% FBS), neutralized with growth media, and counted. Cells were plated at 50,000 cells per well in a V Bottom 96-well plate. Cells were washed once with FACS buffer (PBS (Fisher, catalog #SH30028-03)+2% FBS). […] Test wells that required single or multiple staining steps were left in FACS buffer as appropriate to ensure the final staining was completed simultaneously for all conditions tested. Two wells were left unstained in FACS buffer as controls.
After the incubation with blocking antibody, cells were washed twice in FACS buffer. […] The cells were washed as above and resuspended in FACS buffer plus 1 μg/ml mouse anti-maytansine antibody and incubated in ice for 45 minutes. The cells were washed as above and resuspended in FACS buffer containing 2 ug/ml goat anti-mouse kappa RPE. The cells were incubated on ice for 45 minutes then washed as above. The cells were resuspended in FACS buffer at 200 μl per well. Mean fluorescence intensity of each sample was determined using a Guava EasyCyte Plus HT Flow Cytometer (96 well plate formats) and the raw data was analyzed using the Guava Cytosoft.

Measured: binding result

T26 sequence (O60449 28-1722 limits assumed): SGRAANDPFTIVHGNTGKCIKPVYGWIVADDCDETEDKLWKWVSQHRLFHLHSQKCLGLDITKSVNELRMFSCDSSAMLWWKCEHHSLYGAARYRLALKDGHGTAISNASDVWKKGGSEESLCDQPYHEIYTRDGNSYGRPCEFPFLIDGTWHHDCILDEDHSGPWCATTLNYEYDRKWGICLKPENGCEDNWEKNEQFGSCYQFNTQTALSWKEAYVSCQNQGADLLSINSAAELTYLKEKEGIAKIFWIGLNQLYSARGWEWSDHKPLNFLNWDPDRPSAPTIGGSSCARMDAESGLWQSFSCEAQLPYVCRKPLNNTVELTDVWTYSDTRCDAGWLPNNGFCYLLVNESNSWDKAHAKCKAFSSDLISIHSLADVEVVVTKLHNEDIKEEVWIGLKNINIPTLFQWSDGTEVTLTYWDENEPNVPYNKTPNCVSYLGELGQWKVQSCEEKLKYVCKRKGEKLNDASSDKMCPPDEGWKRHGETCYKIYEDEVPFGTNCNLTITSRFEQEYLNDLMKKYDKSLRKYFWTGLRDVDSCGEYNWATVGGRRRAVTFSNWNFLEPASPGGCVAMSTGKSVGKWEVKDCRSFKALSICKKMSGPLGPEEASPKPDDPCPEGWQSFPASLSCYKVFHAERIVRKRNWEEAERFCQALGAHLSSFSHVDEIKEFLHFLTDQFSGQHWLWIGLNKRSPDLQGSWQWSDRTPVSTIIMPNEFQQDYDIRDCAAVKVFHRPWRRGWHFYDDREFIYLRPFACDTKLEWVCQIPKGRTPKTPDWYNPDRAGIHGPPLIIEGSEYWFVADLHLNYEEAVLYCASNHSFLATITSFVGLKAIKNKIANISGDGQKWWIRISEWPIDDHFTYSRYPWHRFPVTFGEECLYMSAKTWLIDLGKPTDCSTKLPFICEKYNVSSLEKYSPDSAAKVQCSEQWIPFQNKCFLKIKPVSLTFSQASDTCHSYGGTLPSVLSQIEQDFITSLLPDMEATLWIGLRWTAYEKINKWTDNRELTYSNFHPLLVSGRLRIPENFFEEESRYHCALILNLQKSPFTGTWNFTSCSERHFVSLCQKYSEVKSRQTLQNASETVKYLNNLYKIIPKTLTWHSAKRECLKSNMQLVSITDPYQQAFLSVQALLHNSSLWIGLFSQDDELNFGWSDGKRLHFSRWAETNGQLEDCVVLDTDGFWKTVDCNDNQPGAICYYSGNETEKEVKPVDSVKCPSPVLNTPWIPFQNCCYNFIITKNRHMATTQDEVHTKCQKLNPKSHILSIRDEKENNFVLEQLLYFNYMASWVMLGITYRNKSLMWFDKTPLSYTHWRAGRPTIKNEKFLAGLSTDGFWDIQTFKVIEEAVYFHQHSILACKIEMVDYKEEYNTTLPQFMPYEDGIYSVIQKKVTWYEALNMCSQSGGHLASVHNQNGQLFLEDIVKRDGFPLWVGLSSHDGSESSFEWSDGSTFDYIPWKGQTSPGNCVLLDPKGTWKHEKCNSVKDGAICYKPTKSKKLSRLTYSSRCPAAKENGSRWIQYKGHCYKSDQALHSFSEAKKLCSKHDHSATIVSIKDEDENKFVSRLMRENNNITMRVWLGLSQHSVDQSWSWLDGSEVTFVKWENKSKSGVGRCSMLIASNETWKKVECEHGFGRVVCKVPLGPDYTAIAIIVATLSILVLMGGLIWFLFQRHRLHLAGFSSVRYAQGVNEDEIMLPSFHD

B1: LY75_A1 monoclonal antibody (antibody, human IgG1, kappa, V domains shown)
VH: EVQLVESGGGLVKPGGSLRLSCAASGFTYSNAWMSWVRQAPGKGLEWVGRIKSKTDGGTTDYAAPVQGRFTISRDDSKNTLYLQMNSLKTEDTAVYYCTIFGVVSFDYWGQGTLVTVSS
VL: DVQMTQSPSSLSASVGDRVTITCRASQSISDYLSWYQQRPGKAPNLLIYAASNLKTGVPSRFSGSGSGTDFTLTISTLQPEDFATYYCQQSYRSPWTFGQGTKVEIKR
notes: also called LY75A1 antibody; antibody LY75_A1
binds: all assays above

Reference: patent US20210113690A1 (BERLIN CHEMIE, published 2021)
